The binders below were run against T1, PUF4 RNA-binding domain (Saccharomyces cerevisiae, UniProt P25339 537-888) (assay: Mg; RNA-MaP; 20 mM Na-HEPES pH 7.4, 30 mM KOAc, 0.75 mM MgCl2, 0.1% Tween-20, 5% glycerol, 0.1 mg/mL BSA, 2 mM DTT; 25 C; 0.0125-409.6 nM protein). Conditions: tags: N-His6-TEV cleaved; C-SNAP kept, Cy3B-labelled; label: tethered on chip by stalled RNA polymerase.
T1 sequence: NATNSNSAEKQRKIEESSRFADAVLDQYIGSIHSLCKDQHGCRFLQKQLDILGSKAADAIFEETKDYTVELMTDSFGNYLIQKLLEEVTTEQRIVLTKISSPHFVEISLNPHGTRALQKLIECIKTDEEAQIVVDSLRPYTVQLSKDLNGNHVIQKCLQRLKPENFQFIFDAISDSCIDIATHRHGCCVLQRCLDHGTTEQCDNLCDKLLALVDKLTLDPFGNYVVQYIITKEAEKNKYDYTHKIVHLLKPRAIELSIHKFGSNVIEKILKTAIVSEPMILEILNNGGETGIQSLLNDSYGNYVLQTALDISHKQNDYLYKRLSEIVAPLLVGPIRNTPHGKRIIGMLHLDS

Binder | Kd [nM]
UCUCUUUGUAAAACUCUCUU (ssRNA) [Ic_S1_P3E.1_K3.1_C3.1_H3.1_A3.1_[T5A]_F3.1_[T7A]_[A8C]_T3.1] | 369
UCUCUUUGUAUCGGUCUCUU (ssRNA) [Ic_S1_P3E.1_K3.1_C3.1_H3.1_A3.1_[A6C]_F3.1_[T7G]_[A8G]_T3.1] | 1940
UCUCUUUGUAUGACUCUCUU (ssRNA) [Ic_S1_P3E.1_K3.1_C3.1_H3.1_A3.1_[A6G]_F3.1_[T7A]_[A8C]_T3.1] | 1070
UCUCUUUGUAAAGCUCUCUU (ssRNA) [Ic_S1_P3E.1_K3.1_C3.1_H3.1_A3.1_[T5A]_F3.1_[T7G]_[A8C]_T3.1] | 1000
UCUCUUUGUAAUUUUCUCUU (ssRNA) [Ic_S1_P3E.1_K3.1_C3.1_H3.1_A3.1_[T5A]_[A6T]_F3.1_[A8T]_T3.1] | 34
UCUCUUUGUAAACUUCUCUU (ssRNA) [Ic_S1_P3E.1_K3.1_C3.1_H3.1_A3.1_[T5A]_F3.1_[T7C]_[A8T]_T3.1] | 24
UCUCUUUGUAAUUCUCUCUU (ssRNA) [Ic_S1_P3E.1_K3.1_C3.1_H3.1_A3.1_[T5A]_[A6T]_F3.1_[A8C]_T3.1] | 477
UCUCUUUGUAUGAUUCUCUU (ssRNA) [Ic_S1_P3E.1_K3.1_C3.1_H3.1_A3.1_[A6G]_F3.1_[T7A]_[A8T]_T3.1] | 42.2
UCUCUUUGUAAUACUCUCUU (ssRNA) [Ic_S1_P3E.1_K3.1_C3.1_H3.1_A3.1_[T5A]_[A6T]_F3.1_[T7A]_[A8C]_T3.1] | 560
UCUCUUUGUAAUAAUCUCUU (ssRNA) [Ic_S1_P3E.1_K3.1_C3.1_H3.1_A3.1_[T5A]_[A6T]_F3.1_[T7A]_T3.1] | 146
Ia_S4_P5E.1_K5.1_C5.1_H5.1_A5.1_[T6A]_F5.1_T5.1 (ssRNA) RNA: UUUGACAACUGAUCGUUCUUUCUUGUAUAAUUAUUCUUUCUCGAUCAGUUGUCUUU | 4.42
Ia_S4_P5E.1_K5.1_C5.1_H5.1_A5.1_[A7C]_F5.1_T5.1 (ssRNA) RNA: UUUGACAACUGAUCGUUCUUUCUUGUAUUCUUAUUCUUUCUCGAUCAGUUGUCUUU | 5.51
UCUCUUUGUAAUAGUCUCUU (ssRNA) [Ic_S1_P3E.1_K3.1_C3.1_H3.1_A3.1_[T5A]_[A6T]_F3.1_[T7A]_[A8G]_T3.1] | 645
UCUCUUUGUAUCCUUCUCUU (ssRNA) [Ic_S1_P3E.1_K3.1_C3.1_H3.1_A3.1_[A6C]_F3.1_[T7C]_[A8T]_T3.1] | 39.8
UCUCUUUGUAUCGUUCUCUU (ssRNA) [Ic_S1_P3E.1_K3.1_C3.1_H3.1_A3.1_[A6C]_F3.1_[T7G]_[A8T]_T3.1] | 326
UCUCUUUGUAAUUGUCUCUU (ssRNA) [Ic_S1_P3E.1_K3.1_C3.1_H3.1_A3.1_[T5A]_[A6T]_F3.1_[A8G]_T3.1] | 352
UCUCUUUGUAUCCCUCUCUU (ssRNA) [Ic_S1_P3E.1_K3.1_C3.1_H3.1_A3.1_[A6C]_F3.1_[T7C]_[A8C]_T3.1] | 531
UCUCUUUGUAAUCUUCUCUU (ssRNA) [Ic_S1_P3E.1_K3.1_C3.1_H3.1_A3.1_[T5A]_[A6T]_F3.1_[T7C]_[A8T]_T3.1] | 70.2
UCUCUUUGUAAAGUUCUCUU (ssRNA) [Ic_S1_P3E.1_K3.1_C3.1_H3.1_A3.1_[T5A]_F3.1_[T7G]_[A8T]_T3.1] | 135
UCUCUUUGUAAACCUCUCUU (ssRNA) [Ic_S1_P3E.1_K3.1_C3.1_H3.1_A3.1_[T5A]_F3.1_[T7C]_[A8C]_T3.1] | 568
UCUCUUUGUAUGCCUCUCUU (ssRNA) [Ic_S1_P3E.1_K3.1_C3.1_H3.1_A3.1_[A6G]_F3.1_[T7C]_[A8C]_T3.1] | 1720
UCUCUUUGUAUCGCUCUCUU (ssRNA) [Ic_S1_P3E.1_K3.1_C3.1_H3.1_A3.1_[A6C]_F3.1_[T7G]_[A8C]_T3.1] | 859
UCUCUUUGUAUGGUUCUCUU (ssRNA) [Ic_S1_P3E.1_K3.1_C3.1_H3.1_A3.1_[A6G]_F3.1_[T7G]_[A8T]_T3.1] | 509
UCUCUUUGUAAUCAUCUCUU (ssRNA) [Ic_S1_P3E.1_K3.1_C3.1_H3.1_A3.1_[T5A]_[A6T]_F3.1_[T7C]_T3.1] | 758
UCUCUUUGUAAAAGUCUCUU (ssRNA) [Ic_S1_P3E.1_K3.1_C3.1_H3.1_A3.1_[T5A]_F3.1_[T7A]_[A8G]_T3.1] | 822
UCUCUUUGUAUGGCUCUCUU (ssRNA) [Ic_S1_P3E.1_K3.1_C3.1_H3.1_A3.1_[A6G]_F3.1_[T7G]_[A8C]_T3.1] | 1730
UCUCUUUGUAUGCUUCUCUU (ssRNA) [Ic_S1_P3E.1_K3.1_C3.1_H3.1_A3.1_[A6G]_F3.1_[T7C]_[A8T]_T3.1] | 434

— PMC9352680, “A comprehensive thermodynamic model for RNA binding by the Saccharomyces cerevisiae Pumilio protein PUF4”
